These binders were tested against T1, human FcγRI (human, UniProt P12314 16-288, limits assumed) (assay: Biacore T200 (SPR)).
T1 construct: Construct used in the Biacore assay (source, tag, limits) is not described; also called human FcyRI
T1 sequence (P12314 16-288 limits assumed): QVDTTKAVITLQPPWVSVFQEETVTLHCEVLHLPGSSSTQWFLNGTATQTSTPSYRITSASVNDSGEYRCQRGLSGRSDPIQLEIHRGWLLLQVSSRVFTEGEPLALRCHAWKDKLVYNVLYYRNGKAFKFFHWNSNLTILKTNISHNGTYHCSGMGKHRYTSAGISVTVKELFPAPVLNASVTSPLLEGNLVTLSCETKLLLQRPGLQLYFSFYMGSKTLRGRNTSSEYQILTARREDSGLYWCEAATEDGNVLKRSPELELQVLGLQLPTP

Row | binding result | Binder
1 | binds | LYS_E294Del_h1x (antibody, human IgG1, kappa, Expressed in ExpiCHO-S cells without ST6GAL1 co-expression; also called anti-lysozyme antibody having the E294Del amino acid mutation in the human Igγ1 constant region) heavy: QVQLVQSGAEVKKPGASVKVSCKASGYAFSSSWVNWVRQAPGQGLEWMGRIYPGDGDTDYNGKFKGRVTLTADKSTSTAYMELSSLRSEDTAVYYCARRRGYEAVFDYWGQGTLVTVSSASTKGPSVFPLAPSSKSTSGGTAALGCLVKDYFPEPVTVSWNSGALTSGVHTFPAVLQSSGLYSLSSVVTVPSSSLGTQTYICNVNHKPSNTKVDKKVEPKSCDKTHTCPPCPAPELLGGPSVFLFPPKPKDTLMISRTPEVTCVVVDVSHEDPEVKFNWYVDGVEVHNAKTKPREQYNSTYRVVSVLTVLHQDWLNGKEYKCKVSNKALPAPIEKTISKAKGQPREPQVYTLPPSRDELTKNQVSLTCLVKGFYPSDIAVEWESNGQPENNYKTTPPVLDSDGSFFLYSKLTVDKSRWQQGNVFSCSVMHEALHNHYTQKSLSLSPGK light: DIQLTQSPSSLSASVGDRVTITCRASESVDNYDISFLNWFQQKPGKAPKLLIYAASNQGSGVPSRFSGSGSGTDFTLTISSLQPEDFATYYCQQSKEVPYTFGGGTKVEIKRTVAAPSVFIFPPSDEQLKSGTASVVCLLNNFYPREAKVQWKVDNALQSGNSQESVTEQDSKDSTYSLSSTLTLSKADYEKHKVYACEVTHQGLSSPVTKSFNRGEC
2 | binds | LYS_1c3-m1_h10 (antibody, human IgG1, kappa, human Igγ1 constant region, unmodified Fc; Expressed in ExpiCHO-S cells without ST6GAL1 co-expression; also called anti-lysozyme antibody having the human Igγ1 constant region (Fc non-variant)) heavy: not shown light: DIQLTQSPSSLSASVGDRVTITCRASESVDNYDISFLNWFQQKPGKAPKLLIYAASNQGSGVPSRFSGSGSGTDFTLTISSLQPEDFATYYCQQSKEVPYTFGGGTKVEIKRTVAAPSVFIFPPSDEQLKSGTASVVCLLNNFYPREAKVQWKVDNALQSGNSQESVTEQDSKDSTYSLSSTLTLSKADYEKHKVYACEVTHQGLSSPVTKSFNRGEC
3 | no binding | LYS_E294Del_LALA_h1x (antibody, human IgG1, kappa, L234A L235A, Expressed in ExpiCHO-S cells without ST6GAL1 co-expression; also called anti-lysozyme antibody having the L234A/L235A/E294Del amino acid mutations in the human Igγ1 constant region) heavy: QVQLVQSGAEVKKPGASVKVSCKASGYAFSSSWVNWVRQAPGQGLEWMGRIYPGDGDTDYNGKFKGRVTLTADKSTSTAYMELSSLRSEDTAVYYCARRRGYEAVFDYWGQGTLVTVSSASTKGPSVFPLAPSSKSTSGGTAALGCLVKDYFPEPVTVSWNSGALTSGVHTFPAVLQSSGLYSLSSVVTVPSSSLGTQTYICNVNHKPSNTKVDKKVEPKSCDKTHTCPPCPAPEAAGGPSVFLFPPKPKDTLMISRTPEVTCVVVDVSHEDPEVKFNWYVDGVEVHNAKTKPREQYNSTYRVVSVLTVLHQDWLNGKEYKCKVSNKALPAPIEKTISKAKGQPREPQVYTLPPSRDELTKNQVSLTCLVKGFYPSDIAVEWESNGQPENNYKTTPPVLDSDGSFFLYSKLTVDKSRWQQGNVFSCSVMHEALHNHYTQKSLSLSPGK light: DIQLTQSPSSLSASVGDRVTITCRASESVDNYDISFLNWFQQKPGKAPKLLIYAASNQGSGVPSRFSGSGSGTDFTLTISSLQPEDFATYYCQQSKEVPYTFGGGTKVEIKRTVAAPSVFIFPPSDEQLKSGTASVVCLLNNFYPREAKVQWKVDNALQSGNSQESVTEQDSKDSTYSLSSTLTLSKADYEKHKVYACEVTHQGLSSPVTKSFNRGEC

Reference: patent EP4772534A1 (Astellas Pharma, Inc., dated 2026)
